{
  "source": "paper PMC3653948",
  "about": "“PDZ Domain-Mediated Interactions of G Protein-Coupled Receptors with Postsynaptic Density Protein 95: Quantitative Characterization of Interactions” (PLoS ONE, 2013)",
  "key": {"PSD-95 PDZ1 (aa 61–151) [1]": {"biological_target": "PSD-95 PDZ1 (aa 61–151) (UniProt P78352)", "assay": "fluorescence polarisation; competition: 25 nM Cy5-labeled probe and a constant concentration of PDZ protein corresponding to the K d of the probe, twofold dilution series of unlabeled peptide (typically 1–512 µM); 10 mM HEPES pH 7.4, 150 mM NaCl, 1% BSA; room temperature; K i calculated from the IC50"}, "PSD-95 PDZ2 (aa 155–249) [2]": {"biological_target": "PSD-95 PDZ2 (aa 155–249) (UniProt P78352)", "assay": "fluorescence polarisation; competition: 25 nM Cy5-labeled probe and a constant concentration of PDZ protein corresponding to the K d of the probe, twofold dilution series of unlabeled peptide (typically 1–512 µM); 10 mM HEPES pH 7.4, 150 mM NaCl, 1% BSA; room temperature; K i calculated from the IC50"}, "PSD-95 PDZ3 (aa 309–401) [3]": {"biological_target": "PSD-95 PDZ3 (aa 309–401) (UniProt P78352)", "assay": "fluorescence polarisation; competition: 25 nM Cy5-labeled probe and a constant concentration of PDZ protein corresponding to the K d of the probe, twofold dilution series of unlabeled peptide (typically 1–512 µM); 10 mM HEPES pH 7.4, 150 mM NaCl, 1% BSA; room temperature; K i calculated from the IC50"}, "PSD-95 PDZ1 (aa 61–151) [4]": {"biological_target": "PSD-95 PDZ1 (aa 61–151) (UniProt P78352)", "assay": "SPR; PDZ domains immobilised by amine coupling on Sensor Chip CM5 (PDZ1, PDZ2) or CM4 (PDZ3); peptides injected 1 min, 1 min dissociation, 30 µl/min; […]; HBS-EP+ (10 mM HEPES pH 7.4, 150 mM NaCl, 3 mM EDTA, 0.05% Surfactant P-20)"}, "PSD-95 PDZ2 (aa 155–249) [5]": {"biological_target": "PSD-95 PDZ2 (aa 155–249) (UniProt P78352)", "assay": "SPR; PDZ domains immobilised by amine coupling on Sensor Chip CM5 (PDZ1, PDZ2) or CM4 (PDZ3); peptides injected 1 min, 1 min dissociation, 30 µl/min; […]; HBS-EP+ (10 mM HEPES pH 7.4, 150 mM NaCl, 3 mM EDTA, 0.05% Surfactant P-20)"}, "PSD-95 PDZ3 (aa 309–401) [6]": {"biological_target": "PSD-95 PDZ3 (aa 309–401) (UniProt P78352)", "assay": "SPR; PDZ domains immobilised by amine coupling on Sensor Chip CM5 (PDZ1, PDZ2) or CM4 (PDZ3); peptides injected 1 min, 1 min dissociation, 30 µl/min; […]; HBS-EP+ (10 mM HEPES pH 7.4, 150 mM NaCl, 3 mM EDTA, 0.05% Surfactant P-20)"}},
  "data": [
    {"substance": "human somatostatin receptor 4 (hSSTR4) C-tail peptide", "values": [
      {"measurement": "Ki", "setting": "PSD-95 PDZ1 (aa 61–151) [1]", "value": 750, "unit": "µM"},
      {"measurement": "Ki", "setting": "PSD-95 PDZ2 (aa 155–249) [2]", "value": 450, "unit": "µM"},
      {"measurement": "Ki", "setting": "PSD-95 PDZ3 (aa 309–401) [3]", "value": 600, "unit": "µM"}
    ]},
    {"substance": "mouse somatostatin receptor 1 (mSSTR1) C-tail peptide", "values": [
      {"measurement": "Ki", "setting": "PSD-95 PDZ1 (aa 61–151) [1]", "value": 270, "unit": "µM"},
      {"measurement": "Ki", "setting": "PSD-95 PDZ2 (aa 155–249) [2]", "value": 90, "unit": "µM"},
      {"measurement": "Ki", "setting": "PSD-95 PDZ3 (aa 309–401) [3]", "value": "> 1000", "unit": "µM"}
    ]},
    {"substance": "somatostatin receptor 3 (SSTR3) C-tail peptide, human", "values": [
      {"measurement": "Ki", "setting": "PSD-95 PDZ1 (aa 61–151) [1]", "value": 610, "unit": "µM"},
      {"measurement": "Ki", "setting": "PSD-95 PDZ2 (aa 155–249) [2]", "value": "> 1000", "unit": "µM"},
      {"measurement": "Ki", "setting": "PSD-95 PDZ3 (aa 309–401) [3]", "value": 280, "unit": "µM"}
    ]},
    {"substance": "somatostatin receptor 2A (SSTR2A) C-tail peptide, human", "values": [
      {"measurement": "Ki", "setting": "PSD-95 PDZ1 (aa 61–151) [1]", "value": 620, "unit": "µM"},
      {"measurement": "Ki", "setting": "PSD-95 PDZ2 (aa 155–249) [2]", "value": 230, "unit": "µM"},
      {"measurement": "Ki", "setting": "PSD-95 PDZ3 (aa 309–401) [3]", "value": "> 1000", "unit": "µM"}
    ]},
    {"substance": "chemokine receptor CXCR2 C-tail peptide, human", "values": [
      {"measurement": "Ki", "setting": "PSD-95 PDZ1 (aa 61–151) [1]", "value": 280, "unit": "µM"},
      {"measurement": "Ki", "setting": "PSD-95 PDZ2 (aa 155–249) [2]", "value": 370, "unit": "µM"},
      {"measurement": "Ki", "setting": "PSD-95 PDZ3 (aa 309–401) [3]", "value": 370, "unit": "µM"}
    ]},
    {"substance": "human somatostatin receptor 1 (hSSTR1) C-tail peptide", "values": [
      {"measurement": "Ki", "setting": "PSD-95 PDZ1 (aa 61–151) [1]", "value": 50, "unit": "µM"},
      {"measurement": "Ki", "setting": "PSD-95 PDZ2 (aa 155–249) [2]", "value": 28, "unit": "µM"},
      {"measurement": "Ki", "setting": "PSD-95 PDZ3 (aa 309–401) [3]", "value": 200, "unit": "µM"}
    ]},
    {"substance": "neuropeptide Y receptor Y2 C-tail peptide, human", "values": [
      {"measurement": "Ki", "setting": "PSD-95 PDZ1 (aa 61–151) [1]", "value": 270, "unit": "µM"},
      {"measurement": "Ki", "setting": "PSD-95 PDZ2 (aa 155–249) [2]", "value": 230, "unit": "µM"},
      {"measurement": "Ki", "setting": "PSD-95 PDZ3 (aa 309–401) [3]", "value": "> 1000", "unit": "µM"}
    ]},
    {"substance": "5-hydroxytryptamine receptor 2A (5-HTR2A) C-tail peptide, human", "values": [
      {"measurement": "Ki", "setting": "PSD-95 PDZ1 (aa 61–151) [1]", "value": 160, "unit": "µM"},
      {"measurement": "Ki", "setting": "PSD-95 PDZ2 (aa 155–249) [2]", "value": 46, "unit": "µM"},
      {"measurement": "Ki", "setting": "PSD-95 PDZ3 (aa 309–401) [3]", "value": "> 1000", "unit": "µM"}
    ]},
    {"substance": "5-hydroxytryptamine receptor 2C (5-HTR2C) C-tail peptide, human", "values": [
      {"measurement": "koff", "setting": "PSD-95 PDZ1 (aa 61–151) [4]", "value": "> 1", "unit": "s⁻¹"},
      {"measurement": "koff", "setting": "PSD-95 PDZ2 (aa 155–249) [5]", "value": "> 1", "unit": "s⁻¹"},
      {"measurement": "koff", "setting": "PSD-95 PDZ3 (aa 309–401) [6]", "value": "> 1", "unit": "s⁻¹"},
      {"measurement": "Ki", "setting": "PSD-95 PDZ1 (aa 61–151) [1]", "value": 100, "unit": "µM"},
      {"measurement": "Ki", "setting": "PSD-95 PDZ2 (aa 155–249) [2]", "value": 26, "unit": "µM"},
      {"measurement": "Ki", "setting": "PSD-95 PDZ3 (aa 309–401) [3]", "value": 370, "unit": "µM"}
    ]},
    {"substance": "mouse somatostatin receptor 4 (mSSTR4) C-tail peptide", "values": [
      {"measurement": "Ki", "setting": "PSD-95 PDZ1 (aa 61–151) [1]", "value": "> 1000", "unit": "µM"},
      {"measurement": "Ki", "setting": "PSD-95 PDZ2 (aa 155–249) [2]", "value": 420, "unit": "µM"},
      {"measurement": "Ki", "setting": "PSD-95 PDZ3 (aa 309–401) [3]", "value": "> 1000", "unit": "µM"}
    ]},
    {"substance": "β1-adrenergic receptor (β1AR) C-tail peptide, human", "values": [
      {"measurement": "Ki", "setting": "PSD-95 PDZ1 (aa 61–151) [1]", "value": 430, "unit": "µM"},
      {"measurement": "Ki", "setting": "PSD-95 PDZ2 (aa 155–249) [2]", "value": 120, "unit": "µM"},
      {"measurement": "Ki", "setting": "PSD-95 PDZ3 (aa 309–401) [3]", "value": 360, "unit": "µM"}
    ]},
    {"substance": "BAI1 receptor C-tail peptide, human", "values": [
      {"measurement": "Ki", "setting": "PSD-95 PDZ1 (aa 61–151) [1]", "value": 63, "unit": "µM"},
      {"measurement": "Ki", "setting": "PSD-95 PDZ2 (aa 155–249) [2]", "value": 29, "unit": "µM"},
      {"measurement": "Ki", "setting": "PSD-95 PDZ3 (aa 309–401) [3]", "value": 790, "unit": "µM"}
    ]}
  ]
}
